Reference: US20090191645A1, “COMPOUNDS AND METHODS FOR MODULATING INTEGRIN ACTIVITY” (Washington University in St. Louis, priority 2008, published 2009)
Entries after “also recorded” stand apart in the source; their conditions may differ. Values belong to the molecule of their own block, whether it stands above or below them.

Tests used:
C32 melanoma cells = assay: C32 cell adhesion and spreading on vitronectin; format: cell-based, human; conditions: Vn-coated wells
Procedure: Cell Spreading Assay—Spreading of C32 cells on Vn was performed as described (31) in 24-well tissue culture plates coated with 0.5 μg/ml Vn and blocked with 1% BSA/PBS for 2 hrs at room temperature. C32 cells were plated in HBSS with 2 mM CaCl2 and 2 mM MgCl2 in the presence of 2 mM MnSO4, and indicated amounts of GRGDSP (SEQ ID NO: 19), P2483, P2484, or 4N1K. Cells were allowed to spread for 30 minutes at 37° C., after which the cells were fixed, stained, and photographed.
As an initial approach to testing the function of the putative clasp region of β3 integrins, synthetic peptides were used to mimic the α and β sides of the clasp. It was reasoned that αIIbβ3 is likely to be held in the off state more securely than αvβ3, and thus the αIIb clasp sequence was chosen for these experiments (Table 1). To evaluate the effects of the putative clasp peptides on αvβ3 activation in live cells, adhesion and spreading assays using C32 melanoma cells were performed. […] Not until αvβ3 is activated, e.g. via Mn^++ or CD47 stimulation, does αvβ3-dependent spreading occur (35). The assay was performed in Ca^++/Mg^++ which supports integrin activity, and we used Mn^++ activation of αvβ3 as a positive control (6). The putative clasp peptides were incubated with cells added to the Vn-coated wells and after 30 min at 37° cell attachment and spreading were assessed (FIG. 1).

αvβ3 integrin = biological target: T1, αvβ3 integrin (Homo sapiens, UniProt P05106+P06756); assay: LIBS antibody binding to αvβ3 on K562 cells (flow cytometry); format: cell-based; conditions: K562 cells expressing αvβ3; for LIBS1 antibody binding: 100 μM peptide, in the presence of 1 mM RGD peptide, absence of Mn++; for LIBS1, LIBS6 or D3 antibody binding (fluorescence): 1 mM GRGDSP vs LIBS antibody with no RGD peptide
T1 construct: Full length cDNA clones of human αv and β3 integrin subunits were provided by Dr. Scott Blystone; expressed in transfected cells; host or cells: human K562 erythroleukemia cells (ATCC CCL-243), stably expressing αvβ3
T1 sequence (P06756 31-889 limits assumed): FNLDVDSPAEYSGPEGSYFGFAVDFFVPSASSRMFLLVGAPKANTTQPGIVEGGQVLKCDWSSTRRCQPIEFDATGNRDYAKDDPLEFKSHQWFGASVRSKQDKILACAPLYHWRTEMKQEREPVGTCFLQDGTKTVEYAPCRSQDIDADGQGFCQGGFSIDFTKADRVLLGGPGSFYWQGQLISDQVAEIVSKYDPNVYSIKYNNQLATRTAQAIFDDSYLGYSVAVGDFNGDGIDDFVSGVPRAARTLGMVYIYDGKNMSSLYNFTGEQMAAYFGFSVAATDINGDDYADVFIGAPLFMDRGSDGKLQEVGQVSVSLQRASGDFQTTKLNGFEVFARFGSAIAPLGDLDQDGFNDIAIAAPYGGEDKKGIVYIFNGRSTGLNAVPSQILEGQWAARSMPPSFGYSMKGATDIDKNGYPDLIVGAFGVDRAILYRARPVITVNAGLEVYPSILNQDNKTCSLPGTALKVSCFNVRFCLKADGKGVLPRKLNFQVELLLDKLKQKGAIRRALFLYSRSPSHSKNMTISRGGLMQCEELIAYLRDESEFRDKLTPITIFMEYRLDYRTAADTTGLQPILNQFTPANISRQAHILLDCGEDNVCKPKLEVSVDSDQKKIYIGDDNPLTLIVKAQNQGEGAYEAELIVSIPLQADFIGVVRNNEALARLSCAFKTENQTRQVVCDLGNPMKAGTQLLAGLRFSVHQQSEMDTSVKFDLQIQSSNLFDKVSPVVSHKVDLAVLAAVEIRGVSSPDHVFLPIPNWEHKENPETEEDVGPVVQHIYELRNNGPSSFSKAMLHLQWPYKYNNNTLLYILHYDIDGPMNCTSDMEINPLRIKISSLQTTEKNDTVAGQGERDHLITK
T1 sequence (P06756 891-1048 limits assumed): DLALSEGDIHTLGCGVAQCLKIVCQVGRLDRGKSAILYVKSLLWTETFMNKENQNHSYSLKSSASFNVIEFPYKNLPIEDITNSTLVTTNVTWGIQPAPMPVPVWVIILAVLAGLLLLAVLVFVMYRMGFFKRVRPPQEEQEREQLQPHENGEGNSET
T1 sequence (P05106 27-788): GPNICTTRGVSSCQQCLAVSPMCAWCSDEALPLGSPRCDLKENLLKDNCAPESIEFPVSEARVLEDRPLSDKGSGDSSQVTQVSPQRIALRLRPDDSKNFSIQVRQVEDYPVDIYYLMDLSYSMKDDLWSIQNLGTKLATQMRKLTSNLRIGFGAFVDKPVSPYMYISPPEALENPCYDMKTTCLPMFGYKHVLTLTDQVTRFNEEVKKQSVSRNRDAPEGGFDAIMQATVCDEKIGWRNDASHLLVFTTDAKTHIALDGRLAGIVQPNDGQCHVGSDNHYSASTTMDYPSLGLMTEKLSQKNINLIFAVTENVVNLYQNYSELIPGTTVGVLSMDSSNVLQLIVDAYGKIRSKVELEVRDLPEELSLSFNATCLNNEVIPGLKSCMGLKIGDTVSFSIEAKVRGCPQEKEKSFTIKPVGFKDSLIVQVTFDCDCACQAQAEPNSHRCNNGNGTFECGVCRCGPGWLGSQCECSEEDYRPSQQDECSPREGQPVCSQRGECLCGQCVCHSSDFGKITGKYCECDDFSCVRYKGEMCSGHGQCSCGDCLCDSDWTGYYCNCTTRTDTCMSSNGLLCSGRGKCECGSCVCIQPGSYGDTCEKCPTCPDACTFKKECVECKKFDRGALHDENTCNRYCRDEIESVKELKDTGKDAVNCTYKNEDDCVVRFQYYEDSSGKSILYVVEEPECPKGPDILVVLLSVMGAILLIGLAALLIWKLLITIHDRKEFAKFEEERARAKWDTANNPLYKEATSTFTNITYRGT
Procedure: (§1) Flow Cytometry—Binding of anti-β3 mAb AP3 and anti-LIBS mAbs LIBS1, LIBS6 and D3 was quantified using a Coulter EPICS flow cytometer. 10^6 cells were washed and resuspended in 100 μl of FACS buffer (1% BSA, 2 mM MgCl2, in PBS) and incubated on ice for 30 minutes. Cells were washed and resuspended in buffer (PBS+2 mM MgCl2 or 1 mM each CaCl2 and MgCl2) along with combinations of 0-1 mM GRGDSP (SEQ ID NO: 19) with 500 μM MnCl2, 100 μM P2483, 100 μM P2484, and 100 μM P2485 or control peptide. Cells were then incubated on ice for 30 minutes. Cells were washed and incubated in 100 μl of buffer (PBS+2 mM MgCl2) containing donkey anti-mouse IgG-FITC at a 1:100 dilution for an additional 30 min. After washing, the cells were diluted to 0.5 ml and analyzed by flow cytometry. Data was analyzed using WinMDI software.
To more directly monitor changes in integrin conformation, a series of antibodies (mAbs) were used that react with ligand-bound or activated states of β3 integrins. These LIBS mAbs used here recognize epitopes at three different sites within the stalk region of the β3 subunit that are masked in the “off” state and only become accessible when the integrin is “opened up” in the ligand-binding, activated conformation (37). When K562 cells transfected to express αvβ3 integrin were incubated with the LIBS1 or LIBS6 mAbs alone (dotted histograms in FIG. 2), little antibody binding above isotype control mAb or secondary mAb alone was detected. D3 mAb appeared to induce some activation of the integrin since its binding to αvβ3 (FIG. 2, dotted line) was several fold above that of controls. GRGDSP (SEQ ID NO: 19) peptide augments LIBS binding by stabilizing active conformations of the β3 integrin. […] The effect of the clasp peptides on the binding of each LIBS mAb was determined in the presence of 1 mM RGD peptide, but in the absence of Mn^++.

αIIbβ3 integrin = biological target: T2, αIIbβ3 integrin (Homo sapiens, UniProt P05106+P08514); assay: LIBS antibody binding to human platelets (flow cytometry); format: cell-based; conditions: for D3 LIBS antibody binding to platelets: 100 μM clasp peptide in the presence of RGD; for LIBS binding to platelets (3 LIBS mAbs): platelets with PGE1 / kept on ice
T2 construct: Platelets and megakaryocytes are the only cells to express αIIbβ3 integrin; endogenous in cells; host or cells: washed human platelets from a healthy donor
Procedure: Preparation of Fresh Platelets—Collection of human blood was performed under an approved protocol of the Washington University School of Medicine Human Studies Committee. 30 mL of blood was drawn from a healthy donor into 3% sodium citrate, and centrifuged at 200×g for 10 min. at room temp. to yield platelet-rich plasma (PRP). The PRP was treated with 1 μg/ml prostaglandin E1 (PGE-1) and centrifuged at 500×g for 5 min. The platelet pellet was resuspended in Tyrode's solution (137 mM NaCl, 2.7 mM KCl, 2 mM CaCl2, 1 mM MgCl2, 3.3 mM NaH2PO4, 5.5 mM glucose, 20 mM HEPES, pH 7.4 with 1 mg/ml BSA and 1 μg/ml PGE-1. The platelet suspension was stored on ice for 1 to 48 hr or treated as described below.
as §1
Platelets and megakaryocytes are the only cells to express αIIbβ3 integrin, and thus platelets offer a unique system in which to test the effects of the clasp peptides on β3 integrin activation. They also provide the opportunity to compare the activation response to the clasp peptides of αIIbβ3 vs αvβ3. Several G protein coupled receptors (e.g. those for ADP, thromboxane and thrombin) on platelets can rapidly activate αIIbβ3 via inside-out signaling (2). To eliminate this route of activation platelets were incubated with PGE1, which elevates cyclic AMP levels via Gs, and in some experiments also used apyrase to block activation by leaked ADP (39). In addition, platelets were kept on ice for as long as 24 to 48 hours to ensure metabolic inactivity. While short-term exposure to cold can activate platelets, long term exposure makes platelets refractory to activation (40).

[1] = biological target: wild-type human αvβ3 integrin on cells (human, UniProt P06756 31-1048; P05106 27-788); assay: cell-based or functional assay
Chain of wild-type human αvβ3 integrin on cells (P06756 31-1048, chain 1 of 2): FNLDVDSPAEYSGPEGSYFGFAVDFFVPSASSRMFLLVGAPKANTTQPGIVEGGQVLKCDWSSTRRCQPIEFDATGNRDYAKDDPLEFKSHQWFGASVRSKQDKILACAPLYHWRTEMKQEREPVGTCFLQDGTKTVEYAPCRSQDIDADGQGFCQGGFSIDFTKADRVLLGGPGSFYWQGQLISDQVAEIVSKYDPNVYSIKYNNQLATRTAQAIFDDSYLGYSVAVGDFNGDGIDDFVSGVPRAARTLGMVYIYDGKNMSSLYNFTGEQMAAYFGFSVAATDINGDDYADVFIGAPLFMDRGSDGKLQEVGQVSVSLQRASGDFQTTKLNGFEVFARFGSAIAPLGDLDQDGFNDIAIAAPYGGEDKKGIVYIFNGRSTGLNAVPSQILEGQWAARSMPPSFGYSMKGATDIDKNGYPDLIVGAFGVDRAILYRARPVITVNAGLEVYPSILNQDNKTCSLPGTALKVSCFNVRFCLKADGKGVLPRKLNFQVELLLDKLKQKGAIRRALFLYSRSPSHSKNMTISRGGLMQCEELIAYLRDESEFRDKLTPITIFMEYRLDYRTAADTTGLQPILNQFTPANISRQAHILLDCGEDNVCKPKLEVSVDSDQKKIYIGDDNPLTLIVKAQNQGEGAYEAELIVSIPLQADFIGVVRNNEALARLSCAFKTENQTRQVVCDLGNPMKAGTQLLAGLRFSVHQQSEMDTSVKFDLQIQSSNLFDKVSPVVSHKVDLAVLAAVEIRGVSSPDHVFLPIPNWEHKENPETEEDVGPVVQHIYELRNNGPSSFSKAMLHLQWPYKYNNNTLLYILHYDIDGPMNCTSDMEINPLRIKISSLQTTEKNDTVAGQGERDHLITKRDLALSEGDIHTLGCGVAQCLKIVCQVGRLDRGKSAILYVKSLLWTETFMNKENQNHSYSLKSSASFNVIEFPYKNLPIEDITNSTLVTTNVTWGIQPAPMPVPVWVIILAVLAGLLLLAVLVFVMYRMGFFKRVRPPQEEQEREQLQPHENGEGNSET
Chain of wild-type human αvβ3 integrin on cells (P05106 27-788, chain 2 of 2): as the sequence (P05106 27-788) above

[2] = 100 μM clasp peptide, 30 min at 37°
[3] = 100 μM clasp peptide in the presence of 100 μM RGD, metabolically inactive human platelets

- LIBS1 antibody binding (αvβ3 integrin): dramatically increased
- LIBS1 binding to αIIbβ3 (αIIbβ3 integrin; [3]): increased LIBS1 binding
- D3 LIBS antibody binding to platelets (αIIbβ3 integrin; human platelets): large rightward shifts
Molecule: YMESRADRK (listed as Homo sapiens) [P2484]
- C32 cell adhesion (C32 melanoma cells; [2]): stimulated cell adhesion to an extent comparable to 4N1K
- LIBS1 antibody binding (αvβ3 integrin; listed as 2484): greater than that promoted by RGD plus Mn^++
- LIBS1 binding to αIIbβ3 (αIIbβ3 integrin; 100 μM clasp peptide in the presence of 100 μM RGD, metabolically inactive human platelets, listed as αIIb clasp peptide): increased binding well above that with RGD alone

Molecule: Nc1ncnc2c1ncn2[C@@H]1O[C@H](COP(=O)(O)OP(=O)(O)O)[C@@H](O)[C@H]1O [ADP]
- LIBS binding to platelets (3 LIBS mAbs) (αIIbβ3 integrin; 50 μM ADP): Neither of these agonists was able to increase LIBS binding

- LIBS1 antibody binding (αvβ3 integrin): dramatically increased
- LIBS1 binding to αIIbβ3 (αIIbβ3 integrin; [3]): unable to increase LIBS1 binding
- LIBS1 binding to αIIbβ3 (αIIbβ3 integrin; 100 μM clasp peptide in the presence of 100 μM RGD, metabolically inactive human platelets, listed as β3 clasp peptide): failed to increase LIBS1 binding
- D3 LIBS antibody binding to platelets (αIIbβ3 integrin; human platelets): marginally stimulated D3 binding
Molecule: TTRTDTC (listed as Homo sapiens) [P2483]
- C32 cell adhesion (C32 melanoma cells; [2]): stimulated cell adhesion to an extent comparable to 4N1K
- LIBS1 antibody binding (αvβ3 integrin; listed as 2483): greater than that promoted by RGD plus Mn^++

- LIBS antibody binding shift (αvβ3 integrin; 0.5 mM Mn++ added to 1 mM GRGDSP): further augmented
- LIBS1 binding shift (αIIbβ3 integrin; 0.5 mM Mn++ added to 100 μM RGD, human platelets): further magnified
Molecule: [Mn+2] [Mn^++]
- C32 cell adhesion to Vn (C32 melanoma cells; 2 mM MnSO4): increased adhesion
- C32 cell spreading (C32 melanoma cells; 2 mM MnSO4): enhanced spreading
- increase in number of spread cells (C32 melanoma cells; 2 mM MnSO4): ca. 3 fold

- LIBS1, LIBS6 or D3 antibody binding (fluorescence) (αvβ3 integrin): increase in fluorescence
- LIBS1, LIBS6 or D3 antibody binding (fluorescence) (αvβ3 integrin; listed as RGD peptide): increase in D3 binding
- LIBS1 binding to αIIbβ3 (αIIbβ3 integrin; 100 μM RGD, human platelets): sufficient to increase LIBS1 binding
- LIBS6 binding to αIIbβ3 (αIIbβ3 integrin; 100 μM RGD, human platelets): not increased
Molecule: GRGDSP
- C32 cell adhesion (C32 melanoma cells; 0.5 mM GRGDSP): effectively reduced cell adhesion; also recorded: nearly eliminated
- C32 cell spreading (C32 melanoma cells; 0.5 mM GRGDSP): nearly eliminated

Molecule: thrombin receptor activating peptide [TRAP]
- LIBS binding to platelets (3 LIBS mAbs) (αIIbβ3 integrin; 10 μM TRAP): Neither of these agonists was able to increase LIBS binding

- LIBS1 antibody binding (αvβ3 integrin): did not enhance LIBS1 binding
Molecule: KMDASAAVS (listed as Homo sapiens) [control peptide]

Molecule: KRFYVVMWKK (listed as Homo sapiens) [4N1K]
- increase in number of spread cells (C32 melanoma cells; 50 μM 4N1K): ~10 fold
- C32 cell adhesion increased (C32 melanoma cells; 50 μM 4N1K, 30 min at 37°, no additions set at 100%): 400%

- C32 cell spreading on vitronectin [1]: 78 fold
B1: P2484 (αIIb integrin clasp peptide, residues 313-321, YMESRADRK) (peptide)
peptide: YMESRADRK

- C32 cell spreading on vitronectin [1]: 9 fold
B2: P2483 (β3 integrin clasp peptide, residues 561-567, TTRTDTC) (peptide)
peptide: TTRTDTC
